Assay results taken from patent publication US20250179204A1.

Columns and labels:
[1] = target: recombinant mouse GITR (plate-bound) (mouse) (UniProt O35714); assay: ELISA, plate-bound recombinant mouse GITR, absorbance 450 nm against log(conc. ug/ml)
huFcγRIIA R131 (human) = huFcγRIIA R131 (human) (UniProt P12318); assay: SPR, Biacore T200
huFcγRIIIA F158 (human) = huFcγRIIIA F158 (human) (UniProt P08637); assay: SPR, Biacore T200
[2] = target: human FcγRIIIA soluble ectodomain (ELISA) (human) (UniProt P08637); assay: ELISA, plate-bound human FcgRIIIA (receptor named in the legend paragraph 150, not on the sheet), absorbance 450 nm against log(conc. ug/ml)
human FcγRIIB (human) [3] = target: human FcγRIIB (human) (UniProt P31994); assay: SPR, Biacore T200
[4] = target: human FcγRIIIA soluble ectodomain (ELISA) (human) (UniProt P08637); assay: ELISA, plate-bound human FcgRIIIA soluble ectodomain, absorbance 450 nm against log(conc. ug/ml)
human FcγRIIB (human) [5] = target: human FcγRIIB (human) (UniProt P31994); assay: ELISA, plate-bound human FcgRIIB soluble ectodomain, absorbance 450 nm against log(conc. ug/ml)
[6] = target: recombinant mouse GITR (plate-bound) (mouse) (UniProt O35714); assay: ELISA, plate-bound mGITR, plateau from ˜10-1.5 µg/ml as printed
[7] = target: recombinant mouse GITR (plate-bound) (mouse) (UniProt O35714); assay: ELISA, plate-bound mouse GITR, delta OD against Log Ab con (ug/ml)
[8] = target: recombinant mouse GITR (plate-bound) (mouse) (UniProt O35714); assay: ELISA, plate-bound mGITR, antibody at ˜10^3 µg/ml as printed

human FcγRIIB (human), sequence (P31994 43-217): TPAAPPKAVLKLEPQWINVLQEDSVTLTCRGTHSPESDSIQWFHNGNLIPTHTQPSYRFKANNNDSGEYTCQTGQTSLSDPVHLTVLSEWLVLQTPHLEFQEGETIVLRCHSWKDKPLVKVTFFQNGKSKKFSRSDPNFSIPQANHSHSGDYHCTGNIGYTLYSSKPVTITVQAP
huFcγRIIA R131 (human), sequence (P12318 36-218 H167R limits assumed): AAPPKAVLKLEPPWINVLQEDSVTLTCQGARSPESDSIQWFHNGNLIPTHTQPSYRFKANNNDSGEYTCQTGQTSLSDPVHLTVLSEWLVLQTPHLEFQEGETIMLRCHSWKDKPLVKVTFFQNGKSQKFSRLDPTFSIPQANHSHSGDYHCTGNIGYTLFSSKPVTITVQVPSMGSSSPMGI
recombinant mouse GITR (plate-bound) (mouse), sequence (O35714 20-153 limits assumed): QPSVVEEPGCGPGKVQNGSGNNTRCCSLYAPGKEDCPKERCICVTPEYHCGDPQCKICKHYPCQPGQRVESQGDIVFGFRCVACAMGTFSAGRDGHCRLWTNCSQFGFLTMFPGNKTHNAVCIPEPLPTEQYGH
huFcγRIIIA F158 (human), sequence (P08637 17-208 limits assumed): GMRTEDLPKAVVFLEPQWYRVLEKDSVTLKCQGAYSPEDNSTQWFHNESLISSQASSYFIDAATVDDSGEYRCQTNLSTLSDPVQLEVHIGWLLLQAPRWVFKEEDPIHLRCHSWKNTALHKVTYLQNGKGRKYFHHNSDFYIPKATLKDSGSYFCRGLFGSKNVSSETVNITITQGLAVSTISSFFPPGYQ
human FcγRIIIA soluble ectodomain (ELISA) (human), sequence (P08637 17-208): as the sequence (P08637 17-208 limits assumed) above

Row | Substance | EC50 (read off the curve) [1] [µg/mL] | Kd (huFcγRIIA R131 (human)) [nM] | Kd (huFcγRIIIA F158 (human)) [nM] | Kd (human FcγRIIB (human) [3]) [nM] | also measured
1 | chimeric anti-mouse GITR antibody (DTA-1 Fab) afucosylated human IgG1 | 0.02 | 1160 | 580 |  | 
2 | chimeric anti-mouse GITR antibody (DTA-1 Fab) afucosylated human IgG1-G236A | 0.01 |  |  |  | EC50 (read off the curve) [2]: 0.8 µg/mL
3 | chimeric anti-mouse GITR antibody (DTA-1 Fab) human IgG1-G236A | 0.02 | 120 |  | 4380 | 
4 | chimeric anti-mouse GITR antibody (DTA-1 Fab) human IgG1-GASDALIE | 0.01 | 50 | 2230 | 230 | Fold = KD(IgG1)/KD(Fc region variant) (huFcγRIIA R131 (human)): 24.5 fold; Fold = KD(IgG1)/KD(Fc region variant) (human FcγRIIB (human) [3]): 14 fold; EC50 (read off the curve) [4]: 0.2 µg/mL
5 | chimeric anti-mouse GITR antibody (DTA-1 Fab) human IgG1-N297A | 0.02 |  |  |  | 
6 | monospecific mIgG1-N297A anti-mouse GITR antibody (DTA-1 NA) |  |  |  |  | OD450 at plateau [6]: 0.9 OD450; EC50 (read off the curve) [7]: 0.004 µg/mL; OD450 [8]: 0.6 OD450

The next lines start with results.

Row | EC50 (read off the curve) [1] [µg/mL] | Kd (huFcγRIIA R131 (human)) [nM] | Kd (huFcγRIIIA F158 (human)) [nM] | Kd (human FcγRIIB (human) [3]) [nM] | Substance | also measured
7 | 0.02 |  |  |  | chimeric anti-mouse GITR antibody (DTA-1 Fab) human IgG1-GAALIE | 
8 | 0.02 | 3840 |  |  | chimeric anti-mouse GITR antibody (DTA-1 Fab) human IgG1-V11 | EC50 (read off the curve) (human FcγRIIB (human) [5]): 0.4 µg/mL
9 | 0.03 | 1160 | 6700 | 3010 | chimeric anti-mouse GITR antibody (DTA-1 Fab) with human IgG1 | Fold = KD(IgG1)/KD(Fc region variant) (huFcγRIIA R131 (human)): 1 fold; Fold = KD(IgG1)/KD(Fc region variant) (huFcγRIIIA F158 (human)): 1 fold
